Source: patent publication US20150275192

What was measured:
[1] = biological target: L1-CAM (CD171) extracellular domain (UniProt P32004); test: FP; conditions: 5' DNA primer fd; remainder A = alpha-thio-dA, C = gemcitabine (2',2'-difluoro-dC), G = FANA-G, T = floxuridine (5-fluoro-dU); exact value only in figure
[2] = biological target: T1, CD30 extracellular domain (UniProt P28908); test: FP; conditions: 5' DNA primer fd; remainder A = alpha-thio-dA, C = gemcitabine (2',2'-difluoro-dC), G = FANA-G, T = floxuridine (5-fluoro-dU); exact value only in figure
T1 sequence: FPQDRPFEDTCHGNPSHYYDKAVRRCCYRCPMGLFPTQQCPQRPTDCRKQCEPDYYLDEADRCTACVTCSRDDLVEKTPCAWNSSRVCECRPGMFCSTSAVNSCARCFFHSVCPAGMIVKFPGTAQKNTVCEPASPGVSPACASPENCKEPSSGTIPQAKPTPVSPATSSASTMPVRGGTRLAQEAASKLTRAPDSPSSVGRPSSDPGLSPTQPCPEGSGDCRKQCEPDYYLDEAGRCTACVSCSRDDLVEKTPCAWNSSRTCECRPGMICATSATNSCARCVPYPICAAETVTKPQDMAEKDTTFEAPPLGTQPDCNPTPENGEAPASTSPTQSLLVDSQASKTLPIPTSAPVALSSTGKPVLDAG

Chain of L1-CAM (CD171) extracellular domain (P32004 20-1120): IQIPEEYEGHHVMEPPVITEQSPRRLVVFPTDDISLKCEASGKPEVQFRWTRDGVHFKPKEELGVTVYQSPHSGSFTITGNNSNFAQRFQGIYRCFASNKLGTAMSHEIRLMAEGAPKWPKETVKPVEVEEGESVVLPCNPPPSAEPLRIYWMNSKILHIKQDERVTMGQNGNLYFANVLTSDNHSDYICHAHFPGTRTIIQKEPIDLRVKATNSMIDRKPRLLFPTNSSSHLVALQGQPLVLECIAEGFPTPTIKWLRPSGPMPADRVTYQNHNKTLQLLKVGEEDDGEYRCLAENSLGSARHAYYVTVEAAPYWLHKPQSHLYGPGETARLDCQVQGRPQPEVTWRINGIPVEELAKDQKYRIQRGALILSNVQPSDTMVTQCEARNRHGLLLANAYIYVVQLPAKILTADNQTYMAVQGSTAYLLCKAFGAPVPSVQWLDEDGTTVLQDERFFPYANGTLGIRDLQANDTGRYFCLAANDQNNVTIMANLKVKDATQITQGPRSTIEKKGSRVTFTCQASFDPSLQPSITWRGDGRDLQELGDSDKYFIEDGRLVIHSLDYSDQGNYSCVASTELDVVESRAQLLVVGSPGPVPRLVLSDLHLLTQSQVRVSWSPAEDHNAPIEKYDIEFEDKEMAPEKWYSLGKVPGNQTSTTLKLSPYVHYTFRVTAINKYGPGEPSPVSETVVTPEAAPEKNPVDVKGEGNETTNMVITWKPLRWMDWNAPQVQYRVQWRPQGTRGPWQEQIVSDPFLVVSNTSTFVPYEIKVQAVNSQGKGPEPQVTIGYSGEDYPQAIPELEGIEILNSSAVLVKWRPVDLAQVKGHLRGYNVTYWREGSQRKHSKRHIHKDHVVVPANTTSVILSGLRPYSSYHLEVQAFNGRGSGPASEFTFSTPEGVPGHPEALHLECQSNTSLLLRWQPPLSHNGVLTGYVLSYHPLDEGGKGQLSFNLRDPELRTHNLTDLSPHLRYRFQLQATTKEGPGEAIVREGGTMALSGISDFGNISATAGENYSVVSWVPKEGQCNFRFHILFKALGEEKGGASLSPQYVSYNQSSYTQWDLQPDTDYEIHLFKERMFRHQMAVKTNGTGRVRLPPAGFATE

Sequence	Kd [1]	Kd [2]
CCCCTTATTAGCGTTTGCCAGCGACGCCGTTCAACCAGATATTGAAGCAGAACGCAAAAAGAGAGATGAGATTGAGGCT [L1CAM_I1]	< 100 nM	
CCCCTTATTAGCGTTTGCCATTTCATGGTATTGATAAAGCTGTTGCCGATACTTGGAACAATTTCT [CD30_I30]		< 100 nM
CCCCTTATTAGCGTTTGCCATAGATGTGGTAGAAGTCGTCATTTGGCGAGAAAGCTCAGTCTCAGG [L1-CAM_I6]	< 100 nM	
CCCCTTATTAGCGTTTGCCATAGATGTGGTAGAAGTCGTCATTTGGCGAGAAAGCTCAGTCTCAGG [CD30_I3]		> 100 nM
CCCCTTATTAGCGTTTGCCAACGACGCGACGCCGTTCAACCAGATATTGAAGCAGAACGCAAAAAGA [L1-CAM_Icore]	< 100 nM	
